From patent US20230406921A1 (MABWELL SHANGHAI BIOSCIENCE, published 2023)
Substitutions are numbered along the chain they refer to.

B1: h140Hm13/h140Lm8 (antibody, V domains shown)
VH: EVQLVQSGAEVKKPGASVKVSCKASGYKFTNYVMSWVRQAPGQRLEWMGYINPYNDAIKYNEKFTGRVTITRDTSASTAYMELSSLRSEDTAVYYCAREGDFYANYGRLGFAYWGQGTLVTVSS
VL: DIQMTQSPSSLSASVGDRVTITCRASQDITNYLNWYQQKPGKAPKLLIYYTSRLHSGVPSRFSGSGSGTDYTFTISSLQPEDIATYFCQQGDTRPYTFGGGTKVEIK
notes: also called h140Lmut8; mut8
B2: h140Hm13/h140Lm15 (antibody, V domains shown)
VH: B1 VH
VL: B1 VL with H55Q, R94K
B3: h140Hm13/h140Lm16 (antibody, V domains shown)
VH: B1 VH
VL: B1 VL with H55Q, R94S
B4: h140Hm13/h140Lm13 (antibody, V domains shown)
VH: B1 VH
VL: B1 VL with R94F
B5: h140Hm13/h140Lm14 (antibody, V domains shown)
VH: B1 VH
VL: B1 VL with H55Q, R94Y
B6: h140Hm13/h140Lm11 (antibody, V domains shown)
VH: B1 VH
VL: B1 VL with H55S
B7: h140Hm13/h140Lm10 (antibody, V domains shown)
VH: B1 VH
VL: B1 VL with D92A, T93G
notes: also called h140Lmut10; mut10
B8: h140Hm13/h140Lm12 (antibody, V domains shown)
VH: B1 VH
VL: B1 VL with H55Q
B9: h140Hm13/h140Lm17 (antibody, V domains shown)
VH: B1 VH
VL: B1 VL with H55Q, R94E
B10: h140Hm13/h140Lm18 (antibody, V domains shown)
VH: B1 VH
VL: B1 VL with H55Q, R94N
B11: hz140-Hm13/hz182-Lm7 (antibody, V domains shown)
VH: B1 VH
VL: DIQMTQSPSSLSASVGDRVTITCRASQDISNYLNWYQQKPGKAPKLLLYYTSRLHSGVPSRFSGSGSGTDYTLTISSLQPEDFATYFCQQGAGFPYTFGGGTKVEIKR
B12: hz140-Hm13/hz182-Lm2 (antibody, V domains shown)
VH: B1 VH
VL: B11 VL with L73F, F94R
B13: hz140-Hm13/hz182-Lm3 (antibody, V domains shown)
VH: B1 VH
VL: B11 VL with F83I, F94R
B14: hz140-Hm13/hz182-Lm1 (antibody, V domains shown)
VH: B1 VH
VL: B11 VL with L48I, F94R
notes: also called hz182-Lml
B15: hz140-Hm13/hz182-Lm4 (antibody, V domains shown)
VH: B1 VH
VL: B11 VL with S30T, F94R
B16: 140Hm8/hz140L (Table 2) (antibody, V domains shown)
VH: B1 VH with E1Q, S35H
VL: B1 VL with R94F, Y96R
notes: also called hz140-Hm/hz140L
B17: 140Hm3/hz140L (Table 2) (antibody, V domains shown)
VH: B1 VH with E1Q, A57G
VL: B1 VL with R94F, Y96R
notes: also called hz140-Hm/hz140L
B18: 140Hm9/hz140L (Table 2) (antibody, V domains shown)
VH: B1 VH with E1Q, S35H, D56E, A57G
VL: B1 VL with R94F, Y96R
notes: also called hz140-Hm/hz140L
B19: 140Hm2/hz140L (Table 2) (antibody, V domains shown)
VH: B1 VH with E1Q, V33A, S35H, A57G
VL: B1 VL with R94F, Y96R
notes: also called hz140-Hm/hz140L
B20: 140Hm7/hz140L (Table 2) (antibody, V domains shown)
VH: B1 VH with E1Q, S35H, A57G, A112D
VL: B1 VL with R94F, Y96R
notes: also called hz140-Hm/hz140L
B21: 140Hm4/hz140L (Table 2) (antibody, V domains shown)
VH: B1 VH with E1Q, S35H, Y50W, A57G
VL: B1 VL with R94F, Y96R
notes: also called hz140-Hm/hz140L
B22: 140Hm10/hz140L (Table 2) (antibody, V domains shown)
VH: B1 VH with E1Q
VL: B1 VL with R94F, Y96R
notes: also called hz140-Hm/hz140L
B23: 140Hm6/hz140L (Table 2) (antibody, V domains shown)
VH: B1 VH with E1Q, S35H, A57G, T65Q
VL: B1 VL with R94F, Y96R
notes: also called hz140-Hm/hz140L
B24: 140Hm5/hz140L (Table 2) (antibody, V domains shown)
VH: B1 VH with E1Q, S35H, Y54G, A57G
VL: B1 VL with R94F, Y96R
notes: also called hz140-Hm/hz140L
B25: hz140-Hm8/hz182-L (antibody, V domains shown)
VH: B1 VH with E1Q, S35H, A57G, A112D
VL: B1 VL with T30S, I48L, F73L, I83F, D92A, T93G
B26: hz140-Hm5/hz182-L (antibody, V domains shown)
VH: B1 VH with E1Q, S35H, Y50W, A57G
VL: B1 VL with T30S, I48L, F73L, I83F, D92A, T93G
B27: hz140-Hm6/hz182-L (antibody, V domains shown)
VH: B1 VH with E1Q, S35H, Y54G, A57G
VL: B1 VL with T30S, I48L, F73L, I83F, D92A, T93G
B28: hz140-Hm12/hz182-L (antibody, V domains shown)
VH: B1 VH with E1Q, K28T
VL: B1 VL with T30S, I48L, F73L, I83F, D92A, T93G
B29: hz140-Hm9/hz182-L (antibody, V domains shown)
VH: B1 VH with E1Q, S35H
VL: B1 VL with T30S, I48L, F73L, I83F, D92A, T93G
B30: hz140-Hm1/hz182-L (antibody, V domains shown)
VH: B1 VH with E1Q, K28T, S35H, A57G
VL: B1 VL with T30S, I48L, F73L, I83F, D92A, T93G
B31: hz140-Hm2/hz182-L (antibody, V domains shown)
VH: B1 VH with E1Q, N31S, S35H, A57G
VL: B1 VL with T30S, I48L, F73L, I83F, D92A, T93G
B32: hz140-Hm11/hz182-L (antibody, V domains shown)
VH: B1 VH with E1Q
VL: B1 VL with T30S, I48L, F73L, I83F, D92A, T93G
B33: hz140-Hm4/hz182-L (antibody, V domains shown)
VH: B1 VH with E1Q, A57G
VL: B1 VL with T30S, I48L, F73L, I83F, D92A, T93G
B34: hz140-Hm7/hz182-L (antibody, V domains shown)
VH: B1 VH with E1Q, S35H, A57G, T65Q
VL: B1 VL with T30S, I48L, F73L, I83F, D92A, T93G
B35: hz140-Hm3/hz182-L (antibody, V domains shown)
VH: B1 VH with E1Q, V33A, S35H, A57G
VL: B1 VL with T30S, I48L, F73L, I83F, D92A, T93G
B36: hz140-Hm10/hz182-L (antibody, V domains shown)
VH: B1 VH with E1Q, S35H, D56E, A57G
VL: B1 VL with T30S, I48L, F73L, I83F, D92A, T93G

The binders below were run against T1, CD47 on the surface of tumor cells (human, UniProt Q08722 19-323) (assay: FACS, tumor cells, 1 nM).
T1 construct: whole, on cells; Same protein as m4; also called CD47 antigen on the surface of U937 and CCRF cells; SKOV-3
Experimental: (§1) The difference between the binding of the mutant to CD47 on the surface of tumor cells and CD47 on the surface of red blood cells was evaluated.

FACS (MFI) | Binder
26400 | B1
15700 | B2
12200 | B3
10300 | B4
7520 | B5
19400 | B6
40900 | B7
26400 | B8
11200 | B9
9920 | B10

What follows are binders tested against T1, CD47 on the surface of tumor cells (assay: FACS, tumor cells, 2 nM).
Experimental: as §1

FACS (MFI) | Binder
17800 | B11
30400 | B12
30000 | B13
15500 | B14
28500 | B15

Each binder was assayed against T2, CD47 on the surface of human red blood cells (human, UniProt Q08722 19-323) (assay: FACS, RBC, 200 nM).
T2 construct: whole, on cells; Same protein as m3, on red blood cells; also called hRBC; RBC
Experimental: as §1

FACS (MFI) | Binder
349 | B11
1670 | B12
874 | B13
2320 | B14
1840 | B15

The binders below were run against T3, recombinant antigen of the extracellular region of CD47 (Sino Biological, Cat: 12283-H08H) (human, UniProt Q08722 19-139) (assay: Fortebio BLI, recombinant CD47 extracellular region).
T3 construct: extracellular domain; also called recombinant CD47 extracellular region; CD47 recombinant protein

Kd [nM] | koff [s⁻¹] | kon [M⁻¹ s⁻¹] | Binder
3.87 | 0.00094 | 243000 | B16
5.12 | 0.00103 | 201000 | B17
3.92 | 0.000847 | 216000 | B18
2.67 | 0.00071 | 266000 | B19
61.4 | 0.0131 | 213000 | B20
6.17 | 0.00216 | 350000 | B21
7.83 | 0.00202 | 258000 | B22
22.6 | 0.00707 | 313000 | B23
20.8 | 0.00467 | 224000 | B24

These binders were tested against T3, recombinant antigen of the … (assay: Fortebio BLI, antibody on AHC sensor, CD47 extracellular region 100 nM;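 further: antibody held on the sensor through anti-human Fc capture, CD47 antigen in solution, association and dissociation phases each lasting 300 s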).
Experimental: The affinity between the obtained mutant antibody and the CD47 recombinant protein was determined by Fortebio. The antibody was immobilized on the surface of a sensor with the anti-human Fc capture antibody (AHC Sensor), and reacted with the recombinant antigen of the extracellular region of CD47 (with a working concentration of 100 nM) in the liquid phase. The duration for binding and dissociation was both 300 seconds. The kinetic parameters were determined.

Kd [nM] | koff [s⁻¹] | kon [M⁻¹ s⁻¹] | Binder
42.5 | 0.00907 | 213000 | B25
6.82 | 0.00103 | 151000 | B26
8.55 | 0.00316 | 370000 | B27
14.7 | 0.00328 | 224000 | B28
< 0.001 | < 1e-07 | 223000 | B29
1.67 | 0.000542 | 325000 | B30
1.71 | 0.000541 | 317000 | B31
6.53 | 0.0017 | 260000 | B32
5.97 | 0.00171 | 286000 | B33
61.8 | 0.00767 | 124000 | B34
10.3 | 0.00308 | 299000 | B35
< 0.001 | < 1e-07 | 206000 | B36

Each binder was assayed against T3, recombinant antigen of the … (assay: Fortebio BLI, recombinant CD47).

Kd [nM] | kon [M⁻¹ s⁻¹] | Binder
16.6 | 201000 | B11
1410 | 94700 | B12
16.7 | 145000 | B13
7.06 | 134000 | B14
989 | 87900 | B15
